T1: myristoylated Gal3p (Myr-Gal3p) (yeast, UniProt P13045 1-520, limits assumed, N-myristoylation (acylation) at the N-terminal signal)
T1 construct: also called membrane-associated Gal3p
T1 sequence: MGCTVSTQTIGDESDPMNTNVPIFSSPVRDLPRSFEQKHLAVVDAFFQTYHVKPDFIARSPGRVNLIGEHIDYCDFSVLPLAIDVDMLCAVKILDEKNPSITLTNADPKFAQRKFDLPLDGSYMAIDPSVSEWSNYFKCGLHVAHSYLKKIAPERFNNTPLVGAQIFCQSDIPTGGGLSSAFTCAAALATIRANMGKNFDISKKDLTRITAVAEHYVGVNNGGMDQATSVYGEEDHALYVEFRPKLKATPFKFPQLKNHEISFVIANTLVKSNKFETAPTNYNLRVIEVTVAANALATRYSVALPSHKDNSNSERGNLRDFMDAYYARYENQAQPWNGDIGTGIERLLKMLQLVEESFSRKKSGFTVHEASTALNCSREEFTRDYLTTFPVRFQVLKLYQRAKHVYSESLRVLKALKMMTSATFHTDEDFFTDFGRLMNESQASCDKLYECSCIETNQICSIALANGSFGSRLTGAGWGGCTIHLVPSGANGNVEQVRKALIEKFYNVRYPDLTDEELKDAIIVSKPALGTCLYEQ

B1: Myr-Gal4AD (other, yeast)
chain: MGCTVSTQTIGDESDPPLTPSALFGGANFNQSGNIADSSLSFTFTNSSNGPNLITTQTNSQALSQPIASSNVHDNFMNNEITASKIDDGNNSKPLSPGWTDQTAYNAFGITTGMFNTTTMDDVYNYLFDDEDTPPNPKKE
modifications: N-myristoylation at the N-terminal signal
notes: range 758-881; also called membrane-localized Gal4AD
B2: Gal80-GFP (other, yeast, UniProt P04387 1-435, looked up)
chain: MDYNKRSSVSTVPNAAPIRVGFVGLNAAKGWAIKTHYPAILQLSSQFQITALYSPKIETSIATIQRLKLSNATAFPTLESFASSSTIDMIVIAIQVASHYEVVMPLLEFSKNNPNLKYLFVEWALACSLDQAESIYKAAAERGVQTIISLQGRKSPYILRAKELISQGYIGDINSIEIAGNGGWYGYERPVKSPKYIYEIGNGVDLVTTTFGHTIDILQYMTSSYFSRINAMVFNNIPEQELIDERGNRLGQRVPKTVPDHLLFQGTLLNGNVPVSCSFKGGKPTKKFTKNLVIDIHGTKGDLKLEGDAGFAEISNLVLYYSGTRANDFPLANGQQAPLDPGYDAGKEIMEVYHLRNYNAIVGNIHRLYQSISDFHFNTKKIPELPSQFVMQGFDFEGFPTLMDALILHRLIESVYKSNMMGSTLNVSNISHYSL
notes: Order of parts follows the name Gal80-GFP; also called Gal80p fused to green fluorescent protein; not shown: green fluorescent protein (GFP amplified from pYGFP1)
B3: Gal80p (other, yeast, UniProt P04387 1-435, looked up)
chain: B2 chain
B4: wild type Gal3p (other, yeast, UniProt P13045 1-520, looked up)
chain: MNTNVPIFSSPVRDLPRSFEQKHLAVVDAFFQTYHVKPDFIARSPGRVNLIGEHIDYCDFSVLPLAIDVDMLCAVKILDEKNPSITLTNADPKFAQRKFDLPLDGSYMAIDPSVSEWSNYFKCGLHVAHSYLKKIAPERFNNTPLVGAQIFCQSDIPTGGGLSSAFTCAAALATIRANMGKNFDISKKDLTRITAVAEHYVGVNNGGMDQATSVYGEEDHALYVEFRPKLKATPFKFPQLKNHEISFVIANTLVKSNKFETAPTNYNLRVIEVTVAANALATRYSVALPSHKDNSNSERGNLRDFMDAYYARYENQAQPWNGDIGTGIERLLKMLQLVEESFSRKKSGFTVHEASTALNCSREEFTRDYLTTFPVRFQVLKLYQRAKHVYSESLRVLKALKMMTSATFHTDEDFFTDFGRLMNESQASCDKLYECSCIETNQICSIALANGSFGSRLTGAGWGGCTIHLVPSGANGNVEQVRKALIEKFYNVRYPDLTDEELKDAIIVSKPALGTCLYEQ

Assays:
Gal80p [1] = molecular target: B3; test: membrane-tethered Gal4AD in yeast with a UASGAL-HIS3 reporter, growth without galactose
Text: FIG. 7. Membrane targeted transcriptional activation domain of Gal4p (Gal4AD; a.a. 758-881) activates HIS3 reporter gene expression. A yeast strain harboring a UASGAL-HIS3 reporter was transformed with Myr-Gal4AD. […] Transformed cells were spotted on synthetic medium plates lacking histidine, tryptophan and uracil and containing 3% glycerol/2% lactic acid as carbon source.

[2] = molecular target: T1, myristoylated Gal3p (Myr-Gal3p); test: fluorescence microscopy of yeast Sc786 co-expressing Gal80-GFP and Myr-Gal3p, galactose induced
wild type Gal3p = molecular target: B4; test: conclusion from Examples 1-3 (localisation, reporter induction, chromatin immunoprecipitation) in yeast with galactose
Gal4p = Gal4p (yeast, UniProt P04386 1-881); test: formaldehyde cross-linking and chromatin immunoprecipitation at UASGAL, wild type yeast, un-induced and galactose induced
Chain of Gal4p (P04386 whole entry, the tested form may be a part): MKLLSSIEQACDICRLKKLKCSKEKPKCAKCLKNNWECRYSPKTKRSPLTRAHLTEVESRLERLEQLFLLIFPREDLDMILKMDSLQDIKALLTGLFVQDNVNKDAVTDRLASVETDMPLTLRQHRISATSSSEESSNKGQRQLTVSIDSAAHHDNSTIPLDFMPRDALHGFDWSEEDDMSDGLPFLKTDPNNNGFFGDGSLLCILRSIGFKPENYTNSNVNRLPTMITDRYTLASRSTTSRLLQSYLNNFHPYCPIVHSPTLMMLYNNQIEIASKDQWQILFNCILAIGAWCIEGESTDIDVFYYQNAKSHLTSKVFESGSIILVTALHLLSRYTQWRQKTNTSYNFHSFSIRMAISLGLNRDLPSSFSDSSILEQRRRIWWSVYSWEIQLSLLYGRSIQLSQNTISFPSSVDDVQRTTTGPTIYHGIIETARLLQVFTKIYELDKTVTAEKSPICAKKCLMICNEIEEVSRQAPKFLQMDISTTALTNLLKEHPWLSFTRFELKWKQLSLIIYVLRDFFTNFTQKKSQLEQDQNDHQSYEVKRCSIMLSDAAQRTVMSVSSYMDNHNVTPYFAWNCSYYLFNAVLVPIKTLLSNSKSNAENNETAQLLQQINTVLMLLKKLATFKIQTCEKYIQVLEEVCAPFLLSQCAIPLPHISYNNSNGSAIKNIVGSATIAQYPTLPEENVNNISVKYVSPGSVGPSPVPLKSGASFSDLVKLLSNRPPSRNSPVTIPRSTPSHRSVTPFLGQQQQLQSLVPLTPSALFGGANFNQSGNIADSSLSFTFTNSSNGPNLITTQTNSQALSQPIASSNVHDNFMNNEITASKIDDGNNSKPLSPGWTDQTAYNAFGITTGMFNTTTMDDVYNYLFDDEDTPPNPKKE
Experimental: Fold enrichments are indicated (enrichment). […] FIG. 3C illustrates quantitation of promoter occupancy by Gal4p, Gal80p and Gal3p in un-induced and induced cells. Values are means (±standard deviation) of at least five experiments carried out with two sets of independently prepared chromatin samples.
Chromatin immunoprecipitations were performed as described by Braunstein et al., 1993, Genes Dev. 7: 592-604 and Kuras et al. 1999, Nature 399: 609-613. Briefly, wild type Sc723 cells (Blank et al., 1997, Mol. Cell. Biol. 17: 2566-2575) were grown to early exponential growth phase (as measured by absorbance at 600 nm ˜0.4) in 250 mL yeast extract-peptone medium containing 2% glycerol, 3% lactic acid, and 0.05% glucose (−galactose, un-induced). For galactose-induced cultures, galactose was added to the un-induced cultures to a final concentration of 2% and the cultures were incubated for an additional 20 minutes. Formaldehyde was added to a final concentration of 1%, the cultures were incubated for 20 minutes at room temperature, and glycine was added to a final concentration of 300 mM. All the following steps were carried out at 4° C. Cells were washed twice with TBS (20 mM Tris-HCl, 150 mM NaCl, pH 8.0), resuspended in 1 mL lysis buffer (50 mM Tris-HCl pH 8.0, 10 mM EDTA, 1% SDS, 1 mM PMSF), and disrupted by vortexing with glass beads. […]

Gal80p [3] = molecular target: B3; test: cell-based or functional assay

Q: Does B1 bind (Gal80p [1])?
A: binds

Q: Does B2 bind [2]?
A: binds

Q: Does B3 bind (wild type Gal3p)?
A: binds

Q: Does B3 bind (Gal4p)?
A: binds

Q: How did the “reduction in MEL1 gene expression level” value (Gal80p [3]) turn out when B4 was run?
A: 2 fold

Reference: patent US20050048477A1 (published 2005)
